The values below come from paper PMC7956749, “Establishment of Novel Protein Interaction Assays between Sin3 and REST Using Surface Plasmon Resonance and Time-Resolved Fluorescence Energy Transfer” (International Journal of Molecular Sciences, 2021).

Broadly, the Kd is the concentration at which binding is half-saturated. A high value points to weaker binding.

Experiment [1] addresses T1, PAH1-FLAG (paired amphipathic helix 1 domain of Sin3B with a FLAG tag) (UniProt Q62141 31-107).
T1 chain: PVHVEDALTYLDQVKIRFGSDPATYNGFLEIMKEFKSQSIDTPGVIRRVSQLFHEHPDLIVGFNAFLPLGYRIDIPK
Put plainly: SPR; brand-new sensor chip. In general terms: SPR reads the build-up and loss of mass on a sensor chip optically.

The target of experiment [2] is T2, GST-tagged PAH1 (paired amphipathic helix 1 domain of Sin3B) (UniProt Q62141 31-107).
T2 chain: T1 chain
Put plainly: SPR.

Experiment [3] addresses T1, PAH1-FLAG (paired amphipathic helix 1 …). Put plainly: SPR; well-used sensor chip (about 100 regenerations).
Experiment [4] concerns biotinylated REST. Put plainly: TR-FRET PAH1-REST interaction (anti-GST/anti-FLAG-Eu3+ cryptate donor, SA-XL665 acceptor). To be noted: for TR-FRET signal: 665 nm normalized to 620 nm, PAH1 peptide and biotinylated REST 1 to 10,000 nM, n = 4; for dynamic range: TR-FRET 665/620 nm, 384-well, 20 µL, 50 mM Tris-HCl pH 7.6, with biotinylated REST; for S/B / S/N: n=4. Format: binding. The source says: Finally, in order to establish a high-throughput and high-dynamic-range assay mimicking the binding surface between PAH1 and REST, we tried to apply the TR-FRET method for monitoring the interaction as shown in Figure 3a. We chose Europium cryptate (Eu^3+)-conjugated antibodies against GST or FLAG as a donor and SA-conjugated XL665 (a phycobiliprotein pigment derived from red algae) as an acceptor, for TR-FRET. If GST-PAH1 or PAH1-FLAG binds biotinylated REST and then transfers Eu^3+’s energy to XL665, it results in a change of the wavelength from 620 nm (a […] fluorescence derived from Eu^3+ alone) to 665 nm (a long-lived fluorescence converted by FRET) (Figure 3a). […] We prepared a serial dilution of GST-PAH1 or PAH1-FLAG and biotinylated REST ranging from 1 to 10,000 nM (Figure 3b) and then determined the 665 nm fluorescence normalized to 620 nm. […] We also checked whether GST-PAH1-anti-GST-Eu^3+ or FLAG-PAH1-anti-FLAG-Eu^3+ complexes caused any FRET with XL665 (Supplementary Figure S1e), and could not observe any change in wells with these alone. We assigned thresholds for high-throughput and high-standard assay as signal-to-background ratio (S/B) and Z’ factors of more than 5 and 0.8, respectively. We narrowed down optimal conditions to GST-PAH1 at 10, 100, 1000 or 10,000 nM in the presence of biotinylated REST at 1000 or 10,000 nM and that PAH1-FLAG and biotinylated REST at 10,000 nM. The S/B, signal-to-noise ratio (S/N), Z’ factor and coefficient of variation (CV) are shown in the Supplementary Table S1. We also assigned stringent statistical significance and then identified similar results by the S/B and Z’ factor (Figure 3b). To exclude the possibility that Eu^3+ antibodies directly bound XL665 causing FRET, we also determined the fluorescence level in wells including anti-GST-Eu^3+ or anti-FLAG-Eu^3+ and XL665. […] The results were 772 ± 9.1 and 436 ± 9.1 665/620 nm, respectively (n = 6). Although we observed very good dynamic range data at 1 h after preparing reaction mixtures, we obtained similar high-dynamic range data even at 18 h after that (data not shown). From 10 to 1000 nM in the concentration of biotinylated REST, 1000 or 10,000 nM GST-PAH1 induced maximal signals (Figure 3b, left, light blue and orange). The dynamic range of the assay was 31-fold, whereas only 10,000 nM PAH1-FLAG was required for the same amount of biotinylated REST to provide a maximal response and the dynamic range was 7-fold (Figure 3b, right, orange). We ultimately succeeded in establishing a high-standard assay, especially using GST-PAH1 and biotinylated REST.
TR-FRET reagents were prepared by diluting the anti-GST Eu3+ cryptate or anti-FLAG Eu3+ cryptate and SA-XL665 in 50 mM Tris-HCl (pH 7.6) buffer containing 15 mM NaCl, 140 mM KCl, 0.5 mM MgCl2, 0.1% BSA and 0.8 M KF with and without biotinylated REST and each PAH1 peptide. The reaction mix was 20 µL in 384-well format according to the manufacturer’s instructions. The fluoride ion avoids interference with fluorescence properties by protecting free coordination sites between conjugate “cage” and europium ions. One hour or more after preparation, we measured the intensities at 665 and 620 nm wavelength using PHERAstar FS (BMG biotech, Offenburg, Germany).
Values are expressed as the mean ± standard error of the mean (SEM) from indicated replicate samples in each experimental group and the experiments were replicated to ensure consistency. The statistical significance was determined using the Student’s t-test. Values marked as “*” were considered to be statistically significant if their p values were <0.00005. Signal-to-background ratio (S/B), signal-to-noise ratio (S/N) and Z’-factor were calculated by the formula described in our previous report. Additionally, the general criterion sufficient to perform HTS was validated in our previous report. […]

The test system of experiment [5] is biotinylated REST. Put plainly: SPR kinetics of PAH1 peptides on captured biotinylated REST (Biacore T200, SA chip). As to conditions: for Ka (association rate) / Kd (dissociation rate): mean ± SEM, n = 3; for binding to biotinylated REST: SPR sensorgram, SA chip, 0.625 to 10 µM analyte. The experiment is classed as binding. The source says:
In order to validate a binding surface between Sin3B and REST, we utilized the structural information of PDB (2CZY) and designed longer peptides of binding surfaces with a tag and a protease recognition site as shown in Figure 1a. We asked the RIKEN Systems and Structural Biology Center (Yokohama, Japan) to generate recombinant peptides using E. coli. Finally, we obtained biotinylated REST, GST-PAH1 and PAH1-FLAG. In order to validate whether biotinylated REST binds two PAH1 peptides, we designed an SPR assay using a streptavidin (SA) sensor chip as shown in Figure 1b. Biotinylated REST should be bound as a ligand followed by the injection of PAH1 peptides as an analyte.
We chose the amino acid sequences of PAH1 and REST from information based on the crystal structure of a PAH1/REST complex (PDB: 2CZY). We then asked the scientists with the RIKEN institute to produce recombinant PAH1 and REST peptides. They generated recombinant peptides such as GST-PAH1, PAH1-FLAG and biotinylated REST using E. coli. We used these peptides in this study.
Values are expressed as the mean ± standard error of the mean (SEM) from indicated replicate samples in each experimental group and the experiments were replicated to ensure consistency. The statistical significance was determined using the Student’s t-test. Values marked as “*” were considered to be statistically significant if their p values were <0.00005. Signal-to-background ratio (S/B), signal-to-noise ratio (S/N) and Z’-factor were calculated by the formula described in our previous report. Additionally, the general criterion sufficient to perform HTS was validated in our previous report. In the SPR experiments, a statistical trend was considered to be statistically significant if its p-value was 1 > p > 0.05.

Experiment [6] relates to biotinylated REST. Kind of experiment: SPR competitive binding, GST-PAH1 plus PAH1-FLAG on captured biotinylated REST. On the procedure:
In order to determine whether another PAH1 peptide, PAH1-FLAG, competitively binds biotinylated REST in the presence of GST-PAH1, we injected 10 µM GST-PAH1, 10 µM PAH1-FLAG or 5 µM GST-PAH1 and 5 µM PAH1-FLAG into the flow cell capturing biotinylated REST, all of which could change the sensorgram, even though their rates of association/dissociation were different (Figure 2c). […] As a result, the equal molarity of both PAH1 peptides changed the sensorgram-like intermediate form (Figure 2c). The association rate was faster than GST-PAH1, while the dissociation rate was slower than PAH1-FLAG.

Setting [7] is: TR-FRET, PAH1 10 nM, REST 1000 nM.
The mark [8] stands for this setting: TR-FRET, PAH1 10 nM, REST 10,000 nM.
The mark [9] stands for this setting: TR-FRET, PAH1 100 nM, REST 1000 nM.
[10] abbreviates: TR-FRET, PAH1 100 nM, REST 10,000 nM.
Where [11] appears, read: TR-FRET, PAH1 1000 nM, REST 1000 nM.
Where [12] appears, read: TR-FRET, PAH1 1000 nM, REST 10,000 nM.
Where [13] appears, read: TR-FRET, PAH1 10,000 nM, REST 1000 nM.
[14] abbreviates: TR-FRET, PAH1 10,000 nM, REST 10,000 nM.
The mark [15] stands for this setting: SPR Biacore T200, SA chip with biotinylated REST, brand-new sensor chip, analyte 0.625 to 10 µM, 30 µL/min, association 60 s, dissociation 2 min.
Where [16] appears, read: SPR, well-used sensor chip (after around 100 regenerations) with biotinylated REST.

“Also recorded” adds a separate entry of the source. Where no end group is shown, it is not given here.

Regarding APQLIMLANVALTGE (also: biotin, site not given here) [biotinylated REST peptide (RE-1 silencing transcription factor, binding surface for Sin3B PAH1)], the results for the Kd in experiment [1], in experiment [2] and in experiment [3] were 2030 nM, 0.468 nM and 1690 nM, respectively.

B1: GST-PAH1: recombinant glutathione S-transferase (GST)-tagged PAH1 peptide of Sin3B, produced in E. coli (protein)
chain: T1 chain
modifications: left off: GST, end not stated, kept | histidine-tag-like sequence, end not stated, state not stated
notes: recombinant glutathione S-transferase (GST)-tagged PAH1 peptide of Sin3B, produced in E. coli
Take B1: in the experiment on biotinylated REST [4], the “TR-FRET signal” value was “substantial signals; also recorded: remarkably higher dynamic range and accuracy”. The molecule also yielded a dynamic range in the experiment with biotinylated REST [4] of 31 fold. For the same molecule, the S/B with biotinylated REST [4] (setting [7]) is on record as 26.6; in the experiment on biotinylated REST [4] (setting [8]), 24.2; in the experiment on biotinylated REST [4] (setting [9]) it was 27.0; with biotinylated REST [4] (setting [10]) it was 26.7; with biotinylated REST [4] (setting [11]) it was 29.2; with biotinylated REST [4] (setting [12]) it was 31.1. The S/B in the experiment with biotinylated REST [4] (setting [13]) came out at 7.7; in the experiment on biotinylated REST [4] (setting [14]) it was 11.7. In addition, the S/N was 469.9 in the experiment with biotinylated REST [4] (setting [7]); 1,114.3 with biotinylated REST [4] (setting [8]); 478.7 in the experiment with biotinylated REST [4] (setting [9]); 1230.7 in the experiment with biotinylated REST [4] (setting [10]); 517.8 in the experiment with biotinylated REST [4] (setting [11]); 1441.0 in the experiment with biotinylated REST [4] (setting [12]). In addition, the S/N stood at 123.9 in the experiment on biotinylated REST [4] (setting [13]) and 515.1 with biotinylated REST [4] (setting [14]). Besides, the Ka (association rate) in the experiment with biotinylated REST [5] (setting [15]) was determined as 2.38e+06 ± 6.7e+11 M⁻¹ s⁻¹. For the same molecule, the “Kd (dissociation rate)” value in the experiment with biotinylated REST [5] (setting [15]) is recorded as 1.35 ± 0.82 × 10^−3 1/s. Also, the “association and dissociation with biotinylated REST” value in the experiment with biotinylated REST [5] (SPR sensorgram after ligand capturing, GST-PAH1 10 µM) is “robust association and subsequent dissociation”. Moreover, the “binding to biotinylated REST” value in the experiment on biotinylated REST [5] was “bound biotinylated REST in a concentration-dependent manner”. In addition, in the experiment with biotinylated REST [5] (SPR, statistical comparison GST-PAH1 vs PAH1-FLAG, Student's t-test), the “affinity/association compared with PAH1-FLAG” value is “not significant but had a slower trend than PAH1-FLAG, resulting in a significantly increased affinity to REST; also recorded: significantly greater than that of PAH1-FLAG”.

B2: PAH1-FLAG: recombinant FLAG-tagged PAH1 peptide of Sin3B, produced in E. coli (protein)
chain: T1 chain
modifications: left off: FLAG, end not stated, kept | histidine-tag-like sequence, end not stated, state not stated
notes: recombinant FLAG-tagged PAH1 peptide of Sin3B, produced in E. coli
Take B2: in the experiment on biotinylated REST [6] (10 µM GST-PAH1, 10 µM PAH1-FLAG or 5 µM of each), the “competitive binding to biotinylated REST” value was “shares the same binding surface as GST-PAH1”. Also, the “rates of association and dissociation vs GST-PAH1” value in the experiment on biotinylated REST [6] (10 µM each) was “far more quickly than in GST-PAH1”. In the experiment with biotinylated REST [4], the “TR-FRET signal” value was “fewer signals only at high reagent concentrations” and the dynamic range stood at 7 fold. Further, the S/N in the experiment on biotinylated REST [4] (setting [14]) came to 165.3. In addition, in the experiment on biotinylated REST [4] (TR-FRET, biotinylated REST 10 to 1000 nM), the “concentration inducing maximal signal” value was 10,000 nM. In addition, in the experiment on biotinylated REST [5] (setting [15]), the “Ka (association rate)” value was 1.93 ± 0.17 × 10^3 Ms and the “Kd (dissociation rate)” value is 3.83 ± 0.39 × 10^−3 1/s. Besides, the “binding to biotinylated REST” value in the experiment on biotinylated REST [5] is “bound biotinylated REST in a concentration-dependent manner”. In the experiment with biotinylated REST [5] (setting [16]), the “Ka (association rate)” value is recorded as 2.31 ± 0.78 × 10^3 Ms and the “Kd (dissociation rate)” value is given as 3.59 ± 0.13 × 10^−3 1/s. For the same molecule, in the experiment on biotinylated REST [5] (SPR, PAH1-FLAG, well-used vs brand-new chip with REST), the “affinity on well-used vs brand new chip” value was “not significantly different, but had a trend of lower affinity when compared to the brand new one”.
